Entries after “also recorded” stand apart in the source; their conditions may differ. Square brackets hold non-standard residues; d marks the D form. Ends that are not written are not given here. * marks the point of attachment. Biotin = O=C1N[C@H]2[C@H](CS[C@H]2CCCCC(=O)*)N1; pS = N[C@@H](COP(=O)(O)O)C(=O)O
Columns and labels:
[1] = molecular target: T1, 6His-a2N(wt) (Mus musculus, UniProt P15920); test: ARNO-derived peptide pull-down with in vitro translated 6His-a2N(wt); format: binding; conditions: 7 nmol biotin-tagged peptide on streptavidin-agarose beads
T1 construct: amino acid residues 1-402 of mouse V-ATPase a2-subunit (a2N1-402); made in house; host or cells: cell-free in vitro translation
T1 sequence (P15920 1-402): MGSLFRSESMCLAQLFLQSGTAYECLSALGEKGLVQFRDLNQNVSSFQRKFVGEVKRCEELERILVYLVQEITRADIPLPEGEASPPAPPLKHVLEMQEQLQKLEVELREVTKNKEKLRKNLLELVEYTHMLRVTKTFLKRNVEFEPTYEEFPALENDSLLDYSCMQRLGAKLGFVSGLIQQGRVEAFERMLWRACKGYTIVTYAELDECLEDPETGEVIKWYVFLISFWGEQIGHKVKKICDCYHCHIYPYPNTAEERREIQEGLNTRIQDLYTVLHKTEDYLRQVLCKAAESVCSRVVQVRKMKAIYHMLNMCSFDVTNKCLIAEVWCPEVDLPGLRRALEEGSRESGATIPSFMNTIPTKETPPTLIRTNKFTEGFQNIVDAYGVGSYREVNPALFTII
Procedure: FIGS. 4B-C are images of Western blots showing (4B) the results of peptide pull-down assays for interaction of a2N with Sec7-PH-linker of ARNO and (4C) phosphorylation-dependent interaction of a2N with ARNO-derived peptide corresponding to the PB-domain of ARNO. Corresponding ARNO-derived peptides were immobilized on streptavidin-beads and incubated with in vitro translated recombinant a2N. Interacting complexes were eluted and analyzed by Western blotting using anti-a2N antibodies.
ARNO-derived peptides, equal amounts (7 nmol) of biotin-tagged synthetic peptides were also immobilized on streptavidin-agarose beads followed by incubation with 10 μl of in vitro translated 6His-a2N(wt) recombinant protein. Pull-down experiments and SDS-PAGE analysis were performed as described above and interacting 6His-a2N/ARNO-derived-peptide complexes were analyzed by Western blotting using polyclonal anti-a2N antibody. All experiments were repeated at least three times with similar results.

[2] = molecular target: T2, GST-ARNO(wt) (Homo sapiens, UniProt Q99418); test: a2N-derived peptide pull-down assay with GST-ARNO(wt); format: binding; design: key to interaction with ARNO (asterisk mark in Table 1): The interacting peptides are indicated in bold with an asterisk (*); conditions: for interaction of a2N-derived peptide with GST-ARNO(wt) in pull-down: Western blot anti-GST, GST-only as control; for interaction with ARNO (asterisk mark in Table 1): biotin-tagged peptides on streptavidin beads
T2 construct: i) 1-400aa, full length ARNO(wt); made in house; host or cells: E. coli BL21(DE3)
T2 sequence (Q99418 1-400): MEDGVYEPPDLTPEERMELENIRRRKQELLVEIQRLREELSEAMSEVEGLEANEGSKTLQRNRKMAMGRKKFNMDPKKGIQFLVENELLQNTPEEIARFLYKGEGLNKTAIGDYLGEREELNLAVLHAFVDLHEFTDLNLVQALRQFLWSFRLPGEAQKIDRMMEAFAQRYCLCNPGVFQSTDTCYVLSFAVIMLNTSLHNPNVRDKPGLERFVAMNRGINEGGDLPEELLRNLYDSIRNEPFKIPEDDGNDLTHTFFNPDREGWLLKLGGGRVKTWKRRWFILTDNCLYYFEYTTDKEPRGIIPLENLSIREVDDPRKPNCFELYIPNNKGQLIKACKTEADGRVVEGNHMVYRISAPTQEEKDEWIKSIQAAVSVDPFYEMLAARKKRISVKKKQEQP
Procedure: FIG. 2A is an image of a Western blot showing the results of an a2N-derived peptide pull-down assay. The indicated a2N-derived peptides were immobilized on streptavidin-beads and incubated with purified recombinant GST-ARNO(wt). Interacting complexes were eluted and analyzed by Western blotting using monoclonal anti-GST antibodies.
FIG. 2B is an image of a Western blot showing the results of a pull-down assay with selected a2N-derived interacting peptides incubated with either GST (negative control) or GST-ARNO(wt). The first two lanes show the patterns obtained when either GST-only (lane 1) or GST-ARNO(wt) (lane 2) were loaded onto the gel.
Peptides were synthesized, purified by HPLC and analyzed by mass spectrometry in the MGH Peptide/Protein Core Facility. All a2N-derived peptides were synthesized with a biotin-tag on the N-terminus for immobilization on streptavidin-agarose beads and with an additional C-terminal cysteine residue for immobilization on beads using sulfhydryl-specific crosslinkers. A peptide corresponding to the PB-domain of ARNO was synthesized containing either a non-phosphorylated or a phosphorylated Ser392 residue. Peptide stock solutions were prepared in DMSO at 5 mM concentration and stored at −20° C. […]

[3] = molecular target: T3, GST-only (UniProt P08515 1-218 = GST); test: peptide pull-down: biotinylated peptide on streptavidin-agarose beads, GST-only in solution, Western blot with anti-GST antibody
T3 construct: Control bait/prey in pull-down assays; also called GST (negative control)
Procedure: FIGS. 5A-C are a set of three images of Western blots showing the identification of interaction motif of a2N that is involved in specific binding with the Sec7 domain of ARNO. 5A, The catalytic Sec7 domain of ARNO interacts with two a2N-derived peptides, a2N-01 and a2N-03, in pull-down experiments. The peptide pull-down assay was performed with six a2N-derived interaction peptides immobilized on streptavidin-beads and incubated with purified recombinant GST-only or GST-Sec7 domain. Interacting complexes were eluted and analyzed by Western blotting using monoclonal anti-GST antibodies as described below. The loading controls for GST-only (lane 1) or GST-Sec7 (lane 2) are shown. 5B, 5C: Peptide a2N-01 specifically interacts with Sec7 but not PH-domain (5B) or PB-domain (5C) of ARNO. The peptide pull-down assay was performed with peptides a2N-01 and a2N-03 immobilized on streptavidin-beads and incubated with purified recombinant GST-PH domain (5B) or GST-PB domain (5C). Interacting complexes were eluted and analyzed by Western blotting using monoclonal anti-GST antibodies. The loading control of GST-PH-domain (5B) or GST-PB-domain (5C) is shown on the left.
These a2N-derived peptides were immobilized by an N-terminal biotin-tag, which ensured the same efficiency and equivalent binding to streptavidin-agarose beads. Simultaneous pull-down experiments with immobilized peptides were performed using highly purified recombinant GST-only or GST-Sec7-6His as described below. […] To remove unbound peptides, beads were collected by centrifugation and washed in 500 μl ice-cold binding buffer. Next, equal amounts (20 pmoles) of highly purified recombinant GST-only or GST-Sec7-6His were added to the beads containing immobilized peptides and incubated for 2 hours at 4° C. in 500 μl of binding buffer. After washing beads four times in ice-cold binding buffer, the interacting complexes were eluted by boiling in SDS-PAGE sample buffer for 10 min at 95° C., resolved by SDS-PAGE and analyzed by Western blotting using monoclonal anti-GST antibody.

[4] = molecular target: T4, purified 6His-a2N (recombinant a2N protein, a2N1-402, expressed in E. coli and refolded) (mouse, UniProt P15920 1-402); test: SPR (BIAcore T100), a2N immobilised on CM4 chip, ARNO(wt) as analyte, bivalent analyte fit
T4 construct: Immobilised by amine coupling on a CM4 chip for SPR; also called a2N(wt); a2N-His6(wt)
T4 sequence: T1 sequence (P15920 1-402)
Procedure: All reagents, including buffers, sensor chips and the amine coupling kit, were obtained from GE Healthcare. For kinetic analysis of the binding of ARNO(wt) with a2N(wt), purified 6His-a2N (5 μg/ml) in 10 mM sodium acetate (pH 4.0) was immobilized at 80 response units (RU) on a CM4 sensor chip using an amine coupling kit according to the manufacturer's instructions. The same kit was used to perform blank immobilization to create a reference surface on the same chip. Samples of purified GST-ARNO(wt) at concentrations ranging from 0.25-4 μM were injected for 6 min over active and reference surfaces at a flow rate of 30 μl/min in NBS-EP, 1 mM DTT running buffer (10 mM Hepes, pH 7.4, 150 mM NaCl, 3 mM EDTA, 0.05% Surfactant P20, 1 mM DTT). For kinetic analysis of the binding of the ARNO Sec7-domain with a2N-01 peptide, neutravidin (10 μg/ml) in 10 mM sodium acetate (pH 5.0) was immobilized at about 1200 RU on two surfaces of a CM4 sensor chip using an amine coupling kit. Following that, biotinylated a2N-01 peptide (50 RU) and amine-PEG₃-biotin (25 RU) were irreversibly captured by neutravidin to create active and a reference surfaces, respectively. Purified Sec7-6His recombinant protein was injected for 3.5 min over active and reference surfaces at concentrations ranging from 0.05-1 μM and a flow rate of 100 μl/min in NBS-EP, 1 mM DTT running buffer. Dissociation of the complexes was monitored for 10 min, and then the regeneration of the sensor surfaces was performed using 0.05% SDS with 1-min injection in the running buffer at a 20 μl/min flow rate. BIAcore™ T100 Evaluation software was used to calculate the association and dissociation rate constants (kₒₙ and koff) with a 1:1 fitting model. The dissociation constant (KD) was determined from the kₒₙ/koff values. To estimate affinity of interaction the corresponding free energy of binding ΔGbind=RTlnKD was calculated as previously described (Marles et al., Mol Cell 14 (2004) 813-823).
Specific concentration-dependent responses were obtained for both interactions. […]

T3 sequence (P08515 whole entry): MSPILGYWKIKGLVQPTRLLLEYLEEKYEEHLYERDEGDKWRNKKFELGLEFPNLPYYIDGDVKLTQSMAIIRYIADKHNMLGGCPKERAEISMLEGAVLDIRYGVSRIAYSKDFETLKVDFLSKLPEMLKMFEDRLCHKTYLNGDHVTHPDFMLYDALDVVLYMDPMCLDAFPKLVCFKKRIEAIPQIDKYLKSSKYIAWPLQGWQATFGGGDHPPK

Sec7/PH-linker: peptide corresponding to the Sec7/PH-linker region (242-261aa) of ARNO, SEQ ID NO:31 (PFKIPEDDGNDLTHTFFNPD)
interaction of ARNO-derived peptide with a2N [1]: reproducibly observed

Bio-YGVGSYREVNPALFTII-Cys (YGVGSYREVNPALFTIIC) [a2N-22, AA 386-402 of a2N]
interaction of a2N-derived peptide with GST-ARNO(wt) in pull-down [2]: specific interaction; also recorded: capable of interaction with ARNO | interaction with ARNO (asterisk mark in Table 1) [2]: Bio-YGVGSYREVNPALFTII-Cys *

ARNO375-440^P: phosphorylated version (Ser392) of the ARNO PB-domain peptide, SEQ ID NO:33 (VSVDPFYEMLAARKKRI[pS]VKKKQEQP)
interaction of ARNO-derived peptide with a2N [1]: completely abolished

Bio-ETGEVIKWYVFLISFW-Cys (ETGEVIKWYVFLISFWC) [a2N-12, AA 215-230 of a2N]
interaction of a2N-derived peptide with GST-ARNO(wt) in pull-down [2]: specific interaction; also recorded: capable of interaction with ARNO | interaction with ARNO (asterisk mark in Table 1) [2]: Bio-ETGEVIKWYVFLISFW-Cys *

Bio-KHVLEMQEQLQKLEVELREVTKNKEKLRKNLLELVE-Cys (KHVLEMQEQLQKLEVELREVTKNKEKLRKNLLELVEC) [a2N-06, AA 92-127, predicted CC-domain of a2N]
interaction of a2N-derived peptide with GST-ARNO(wt) in pull-down [2]: did not bind

Bio-NMCSFDVTNKCLIAEVWCP-Cys (NMCSFDVTNKCLIAEVWCPC) [a2N-18, AA 313-331 of a2N]
interaction of a2N-derived peptide with GST-ARNO(wt) in pull-down [2]: specific interaction; also recorded: capable of interaction with ARNO | interaction with ARNO (asterisk mark in Table 1) [2]: Bio-NMCSFDVTNKCLIAEVWCP-Cys *

Bio-GYTIVTYAELDECLEDP-Cys (GYTIVTYAELDECLEDPC) [a2N-11, AA 198-214 of a2N]
interaction of a2N-derived peptide with GST-ARNO(wt) in pull-down [2]: specific interaction; also recorded: capable of interaction with ARNO | interaction with ARNO (asterisk mark in Table 1) [2]: Bio-GYTIVTYAELDECLEDP-Cys *

Biotin-YGVGSYREVNPALFTIIC [a2N-22]
binding result [3]: no binding

Biotin-VQFRDLNQNVSSFQRC (also called a2N35-49) [a2N-03]
binding result [3]: no binding

Biotin-NMCSFDVTNKCLIAEVWCPC (cysteine pairing not given here, also called a2N313-331) [a2N-18]
binding result [3]: no binding

Biotin-GYTIVTYAELDECLEDPC (cysteine pairing not given here, also called a2N198-214) [a2N-11]
binding result [3]: no binding

Biotin-ETGEVIKWYVFLISFWC (also called a2N215-230) [a2N-12]
binding result [3]: no binding

B1: GST-ARNO(wt) (other, human, UniProt Q99418 1-400, looked up)
chain: T2 sequence (Q99418 1-400)
notes: range 1-400; Double-tagged construct (N-terminal GST, C-terminal 6xHis); also called full length ARNO(wt); wild-type ARNO; not shown: N-terminal GST-tag from the pGEX6P-1 vector; C-terminal 6xHis-tag
Kd [4]: 313 nM | koff [4]: 0.0015 s⁻¹ | kon [4]: 4770 M⁻¹ s⁻¹

Source: patent publication US20140162285A1, “Methods of Modulating Vesicular Trafficking” (The General Hospital Corporation, priority 2009, published 2014)
